Test results reported in patent publication US7078203 (UNIVERSITY OF NORTH CAROLINA AT CHAPEL HILL, dated 2006).

Assays:
[1] = target: T1, mouse APC2 fused to the Gal4 DNA-binding domain (yeast; mouse, UniProt P04386 1-147; Q8BZQ7 15-837, limits assumed); assay: yeast two-hybrid, -LWH with 5 mM 3-AT
T1 construct: also called GAL4BD-APC2

[2] = target: myc-epitope tagged APC2 (mouse, UniProt Q8BZQ7 15-837); assay: co-immunoprecipitation from transfected HeLa cells
[3] = target: human ROC1 (untagged: in vitro translated or endogenous in HeLa and Saos-2 cells) (human, UniProt P62877 1-108); assay: anti-ROC1 immunopurification from HeLa lysate, microsequencing of co-precipitated 70 to 120 kDa proteins
Chain of human ROC1 (untagged: in vitro translated or endogenous in HeLa and Saos-2 cells) (P62877 whole entry): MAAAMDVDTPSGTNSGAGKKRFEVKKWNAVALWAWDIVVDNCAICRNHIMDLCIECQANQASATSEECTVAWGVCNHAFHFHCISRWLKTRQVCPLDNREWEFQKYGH

[4] = target: T2, HA-epitope tagged human ROC1 (human, UniProt P62877 1-108); assay: co-immunoprecipitation with anti-HA from [35S]-methionine labelled transfected cells
T2 construct: Expressed by transfection in mammalian cells; tag written first because of the name HA-ROC1; also called HA-ROC1
T2 sequence (P62877 whole entry): as above

[5] = target: CUL-B (ORF YGR003w) fused to the Gal4 DNA binding domain (yeast; S. cerevisiae, UniProt P04386 1-147; P53202 1-744); assay: yeast two-hybrid
Excerpt: (§1) The yeast genome contains four cullin members, CDC53, CUL-B (ORF YGR003w), CUL-C(ORF YJL047c) and APC2. Each gene was fused in-frame with the Gal4 DNA binding domain and co-transformed with ScROC1 or ScAPC11 fused in-frame with the GAL4 activation domain. ScAPC2 was self-activating as a bait and was fused in-framed with the GAL4 activation domain and tested with ScROC1 fused in-frame with the DNA binding domain.

[6] = target: CDC53 fused to the Gal4 DNA binding domain (pGBT8-CDC53) (yeast; S. cerevisiae, UniProt P04386 1-147; Q12018 1-815); assay: yeast two-hybrid
Excerpt: as §1

Chain of myc-epitope tagged APC2 (Q8BZQ7 15-837): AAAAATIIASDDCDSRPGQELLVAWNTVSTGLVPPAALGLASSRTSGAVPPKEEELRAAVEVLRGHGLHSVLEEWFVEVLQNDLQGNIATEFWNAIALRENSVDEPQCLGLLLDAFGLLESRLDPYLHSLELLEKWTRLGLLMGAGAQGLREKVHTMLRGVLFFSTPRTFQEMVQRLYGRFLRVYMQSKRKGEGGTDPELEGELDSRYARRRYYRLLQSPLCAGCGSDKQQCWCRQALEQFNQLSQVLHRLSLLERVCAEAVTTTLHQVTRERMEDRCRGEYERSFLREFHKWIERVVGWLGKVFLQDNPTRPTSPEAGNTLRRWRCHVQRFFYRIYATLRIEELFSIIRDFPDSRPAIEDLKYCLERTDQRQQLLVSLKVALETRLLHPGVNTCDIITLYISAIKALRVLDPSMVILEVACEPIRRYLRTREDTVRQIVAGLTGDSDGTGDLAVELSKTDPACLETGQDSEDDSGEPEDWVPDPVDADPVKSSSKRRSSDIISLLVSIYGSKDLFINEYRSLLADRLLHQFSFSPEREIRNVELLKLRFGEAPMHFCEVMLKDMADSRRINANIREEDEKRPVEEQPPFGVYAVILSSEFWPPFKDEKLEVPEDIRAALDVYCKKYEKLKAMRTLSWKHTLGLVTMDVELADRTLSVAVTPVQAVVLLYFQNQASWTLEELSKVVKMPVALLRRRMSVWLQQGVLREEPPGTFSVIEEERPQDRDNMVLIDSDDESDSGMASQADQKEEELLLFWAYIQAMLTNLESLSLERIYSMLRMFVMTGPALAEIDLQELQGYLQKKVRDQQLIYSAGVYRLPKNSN

B1: full length human ROC2 fused to the Gal4 DNA activation domain (other, not shown: large carriers)
chain: MFSLKKWNPVAMWSWDVECDTCAICRVQVMDACLRCQAENKQEDCVVVWGECNHSFHNCCMSLWVKQNNRCPLCQQDWVVQRIGK
notes: Yeast two-hybrid prey
[1]
  binding result: no binding

B2: HA tagged human ROC2 (other, not shown: small tags and cut ends)
chain: MFSLKKWNPVAMWSWDVECDTCAICRVQVMDACLRCQAENKQEDCVVVWGECNHSFHNCCMSLWVKQNNRCPLCQQDWVVQRIGK
notes: Migrates as a doublet in transfected cells; also called HA-ROC2
[2]
  binding result: no binding

B3: human CUL2 (endogenous in HeLa cells) (other, UniProt Q13617 1-745, looked up)
chain: MSLKPRVVDFDETWNKLLTTIKAVVMLEYVERATWNDRFSDIYALCVAYPEPLGERLYTETKIFLENHVRHLHKRVLESEEQVLVMYHRYWEEYSKGADYMDCLYRYLNTQFIKKNKLTEADLQYGYGGVDMNEPLMEIGELALDMWRKLMVEPLQAILIRMLLREIKNDRGGEDPNQKVIHGVINSFVHVEQYKKKFPLKFYQEIFESPFLTETGEYYKQEASNLLQESNCSQYMEKVLGRLKDEEIRCRKYLHPSSYTKVIHECQQRMVADHLQFLHAECHNIIRQEKKNDMANMYVLLRAVSTGLPHMIQELQNHIHDEGLRATSNLTQENMPTLFVESVLEVHGKFVQLINTVLNGDQHFMSALDKALTSVVNYREPKSVCKAPELLAKYCDNLLKKSAKGMTENEVEDRLTSFITVFKYIDDKDVFQKFYARMLAKRLIHGLSMSMDSEEAMINKLKQACGYEFTSKLHRMYTDMSVSADLNNKFNNFIKNQDTVIDLGISFQIYVLQAGAWPLTQAPSSTFAIPQELEKSVQMFELFYSQHFSGRKLTWLHYLCTGEVKMNYLGKPYVAMVTTYQMAVLLAFNNSETVSYKELQDSTQMNEKELTKTIKSLLDVKMINHDSEKEDIDAESSFSLNMNFSSKRTKFKITTSMQKDTPQEMEQTRSAVDEDRKMYLQAAIVRIMKARKVLRHNALIQEVISQSRARFNPSISMIKKCIEVLIDKQYIERSQASADEYSYVA
notes: also called cullin 2
[3]
  binding result: binds

B4: myc-epitope tagged mouse cullin 4A (other, UniProt Q3TCH7 1-759, looked up, not shown: small tags and cut ends)
chain: MADEGPRKGSVSALMGRTNGLTKPAALAGGPAKPGGTGGSRKLVIKNFRDRPRLPDNYTQDTWRKLHEAVKAIQSSTSIRYNLEELYQAVENLCSHKVSPTLYKQLRQVCEDHVQAQILPFREDSLDSVLFLKKINTCWQDHCRQMIMIRSIFLFLDRTYVLQNSMLPSIWDMGLELFRNHIISDRMVQSKTIDGILLLIGRERSGEAVDRSLLRSLLSMLSDLQVYKDSFELKFLEETNCLYAAEGQRLMQDREVPEYLNHVSKRLEEEADRVITYLDHSTQKPLIACVEKQLLGEHLTAILQKGLEHLLDENRVPDLTQMYQLFSRVKGGQHALLQHWSEYIKTFGTTIVINPEKDKDMVQDLLDFKDKVDHVVEVCFQRNERFINLMKESFETFINKRPNKPAELIAKHVDSKLRAGNKEATDEELERILDKIMILFRFIHGKDVFEAFYKKDLAKRLLVGKSASVDAEKSMLSKLKHECGAAFTSKLEGMFKDMELSKDIMVHFKQHMQNQSAPGPIDLTVNILTMGYWPTYTPMEVHLPPEMVRLQEVFKTFYLGKHSGRKLQWQTTLGHAVLKADFKEGKKEFQVSLFQTLVLLMFNEGDGFSFEEIKMATGIEDSELRRTLQSLACGKARVLIKSPKGKEVEDGDKFIFNADFKHKLFRIKINQIQMKETVEEQVSTTERVFQDRQYQIDAAIVRIMKMRKTLGHNLLVSELYNQLKFPVKPGDLKKRIESLIDRDYMERDKDSPNQYHYVA
notes: also called myc-mCUL4A
[4]
  binding result: binds

B5: ScAPC11 fused to the GAL4 activation domain (other, S. cerevisiae, UniProt Q12157 1-165, looked up, not shown: large carriers)
chain: MKVKINEVHSVFAWSWHIPSTSDEDAANNDPIGNDEDEDVCGICRASYNGTCPSCKFPGDQCPLVIGLCHHNFHDHCIYRWLDTPTSKGLCPMCRQTFQLQKGLAINDAHVQKFVEIVSRRREEMIEEGVAEEFVDFDEPIRQNTDNPIGRQQVDTILDEDFLLR
notes: also called yeast APC11
[5]
  binding result: no binding
[6]
  binding result: no binding
